Consider one substance from patent US20210206804A1.

The target of assay [1] is αvβ6 integrin on DX3puroβ6 cells (human) (UniProt P06756). Kind of assay: cell binding of the radiotracer, DX3puroβ6 cells (FIG. 27).
The target is the same in assay [2]. Kind of assay: internalization of the radiotracer, DX3puroβ6 cells (FIG. 27).
The target in assay [3] is αvβ6 integrin (purified, captured on the ELISA plate) (UniProt P06756). Description: ELISA (format not detailed at this place); not bearing K(IPA)E. On the technique in general: ELISA stands for enzyme-linked immunosorbent assay.
αvβ6 integrin (purified, captured on the ELISA plate), sequence (P06756 31-992, chain 1 of 2): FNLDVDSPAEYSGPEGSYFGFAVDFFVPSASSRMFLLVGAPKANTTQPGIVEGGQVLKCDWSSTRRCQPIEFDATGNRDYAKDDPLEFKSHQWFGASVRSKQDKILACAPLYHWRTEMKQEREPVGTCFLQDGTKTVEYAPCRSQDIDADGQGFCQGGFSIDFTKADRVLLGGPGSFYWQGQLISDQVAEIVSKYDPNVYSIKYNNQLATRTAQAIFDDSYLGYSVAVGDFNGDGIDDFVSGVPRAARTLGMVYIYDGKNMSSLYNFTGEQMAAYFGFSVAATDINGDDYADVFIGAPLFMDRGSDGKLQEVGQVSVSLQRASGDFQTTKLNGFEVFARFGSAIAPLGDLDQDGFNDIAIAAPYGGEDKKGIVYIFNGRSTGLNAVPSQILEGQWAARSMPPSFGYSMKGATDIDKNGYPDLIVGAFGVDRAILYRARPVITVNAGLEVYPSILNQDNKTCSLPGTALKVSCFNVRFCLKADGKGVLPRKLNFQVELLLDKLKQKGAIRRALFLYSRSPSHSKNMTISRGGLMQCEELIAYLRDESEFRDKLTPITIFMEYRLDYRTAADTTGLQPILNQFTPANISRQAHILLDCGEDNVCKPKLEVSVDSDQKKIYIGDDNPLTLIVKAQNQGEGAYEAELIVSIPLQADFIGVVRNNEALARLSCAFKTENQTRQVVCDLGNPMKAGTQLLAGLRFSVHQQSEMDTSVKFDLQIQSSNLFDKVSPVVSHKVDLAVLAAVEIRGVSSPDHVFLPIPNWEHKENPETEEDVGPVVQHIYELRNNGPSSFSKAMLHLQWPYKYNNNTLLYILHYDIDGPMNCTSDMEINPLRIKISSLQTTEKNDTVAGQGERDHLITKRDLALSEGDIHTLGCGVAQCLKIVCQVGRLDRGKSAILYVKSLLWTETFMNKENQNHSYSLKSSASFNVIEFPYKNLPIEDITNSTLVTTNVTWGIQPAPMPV
αvβ6 integrin (purified, captured on the ELISA plate), sequence (P18564 22-707, chain 2 of 2, further chain): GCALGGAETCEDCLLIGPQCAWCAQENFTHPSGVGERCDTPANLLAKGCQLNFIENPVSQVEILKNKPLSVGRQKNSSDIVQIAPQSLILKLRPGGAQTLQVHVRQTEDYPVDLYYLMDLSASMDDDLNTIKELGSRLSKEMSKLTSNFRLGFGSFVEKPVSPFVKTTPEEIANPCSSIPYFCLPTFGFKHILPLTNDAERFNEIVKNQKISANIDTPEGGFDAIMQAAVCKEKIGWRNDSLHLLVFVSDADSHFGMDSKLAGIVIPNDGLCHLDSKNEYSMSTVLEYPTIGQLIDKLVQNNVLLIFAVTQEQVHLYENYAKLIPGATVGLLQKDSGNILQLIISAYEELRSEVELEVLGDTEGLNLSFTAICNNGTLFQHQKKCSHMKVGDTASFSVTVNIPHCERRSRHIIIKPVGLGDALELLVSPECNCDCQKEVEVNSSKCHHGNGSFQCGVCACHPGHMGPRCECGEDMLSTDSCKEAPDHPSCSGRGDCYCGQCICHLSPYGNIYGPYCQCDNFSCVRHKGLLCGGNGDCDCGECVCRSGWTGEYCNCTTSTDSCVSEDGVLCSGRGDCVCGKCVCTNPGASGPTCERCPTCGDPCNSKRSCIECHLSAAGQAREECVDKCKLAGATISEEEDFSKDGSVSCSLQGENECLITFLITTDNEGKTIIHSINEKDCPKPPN

αvβ6 integrin on DX3puroβ6 cells (human), sequence (P06756 31-1048 limits assumed, chain 1 of 2): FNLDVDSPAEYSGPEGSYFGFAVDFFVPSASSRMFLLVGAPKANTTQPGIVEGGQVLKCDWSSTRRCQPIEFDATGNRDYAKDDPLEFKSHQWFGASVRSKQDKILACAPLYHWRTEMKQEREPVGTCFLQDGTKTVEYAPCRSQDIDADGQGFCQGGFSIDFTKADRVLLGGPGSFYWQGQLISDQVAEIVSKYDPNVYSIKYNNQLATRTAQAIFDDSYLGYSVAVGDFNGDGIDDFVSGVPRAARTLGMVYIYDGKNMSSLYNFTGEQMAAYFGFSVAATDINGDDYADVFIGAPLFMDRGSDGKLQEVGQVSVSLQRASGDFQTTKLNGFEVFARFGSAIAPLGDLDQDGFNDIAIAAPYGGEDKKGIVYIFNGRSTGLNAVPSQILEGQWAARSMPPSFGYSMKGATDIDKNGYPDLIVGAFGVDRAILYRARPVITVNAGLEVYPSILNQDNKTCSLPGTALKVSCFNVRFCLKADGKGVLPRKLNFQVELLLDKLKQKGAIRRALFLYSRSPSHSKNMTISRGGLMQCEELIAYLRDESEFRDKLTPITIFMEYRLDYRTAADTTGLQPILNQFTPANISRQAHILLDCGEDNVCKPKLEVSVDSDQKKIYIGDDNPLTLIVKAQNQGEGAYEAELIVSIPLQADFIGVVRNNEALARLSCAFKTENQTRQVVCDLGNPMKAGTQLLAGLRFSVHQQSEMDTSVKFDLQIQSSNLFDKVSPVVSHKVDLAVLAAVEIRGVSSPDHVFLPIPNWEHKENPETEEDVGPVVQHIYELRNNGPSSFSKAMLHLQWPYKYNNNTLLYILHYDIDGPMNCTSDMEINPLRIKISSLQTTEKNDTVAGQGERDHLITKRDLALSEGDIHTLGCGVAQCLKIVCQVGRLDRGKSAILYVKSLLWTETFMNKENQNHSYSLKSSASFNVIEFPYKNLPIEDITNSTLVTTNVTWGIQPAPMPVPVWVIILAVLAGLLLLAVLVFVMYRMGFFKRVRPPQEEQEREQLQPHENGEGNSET
αvβ6 integrin on DX3puroβ6 cells (human), sequence (P18564 22-788 limits assumed, chain 2 of 2, further chain): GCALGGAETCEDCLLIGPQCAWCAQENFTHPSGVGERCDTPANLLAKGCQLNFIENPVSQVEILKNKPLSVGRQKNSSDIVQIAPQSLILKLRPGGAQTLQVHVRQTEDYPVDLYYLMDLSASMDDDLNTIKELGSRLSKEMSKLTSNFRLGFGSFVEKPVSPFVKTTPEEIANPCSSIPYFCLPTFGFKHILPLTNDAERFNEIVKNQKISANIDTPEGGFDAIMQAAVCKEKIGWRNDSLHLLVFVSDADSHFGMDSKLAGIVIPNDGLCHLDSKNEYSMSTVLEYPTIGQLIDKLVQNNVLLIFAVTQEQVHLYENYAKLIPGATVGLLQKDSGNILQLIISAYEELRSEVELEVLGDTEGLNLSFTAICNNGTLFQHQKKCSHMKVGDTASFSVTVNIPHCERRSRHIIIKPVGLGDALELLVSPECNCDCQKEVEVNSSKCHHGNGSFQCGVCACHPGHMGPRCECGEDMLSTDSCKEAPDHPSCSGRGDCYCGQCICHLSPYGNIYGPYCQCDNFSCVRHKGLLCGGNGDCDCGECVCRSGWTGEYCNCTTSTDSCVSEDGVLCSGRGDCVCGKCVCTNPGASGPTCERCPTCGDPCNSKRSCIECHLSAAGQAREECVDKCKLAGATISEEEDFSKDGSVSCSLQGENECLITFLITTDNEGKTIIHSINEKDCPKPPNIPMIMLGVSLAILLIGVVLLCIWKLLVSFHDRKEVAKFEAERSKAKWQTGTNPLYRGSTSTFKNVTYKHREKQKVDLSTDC

As to “PEGylated A20FMDV2 not bearing K(IPA)E (peptide)”, the bound (%) in assay [1] was 52%. In addition, the internalized (% of bound radioactivity) in assay [2] is 44%. The concentration for half-maximal inhibition (IC50) in assay [3] was 2 nM.

Usually IC50 stands for the concentration that gives 50% inhibition. Lower therefore signals greater potency.
